In data set [1] the target is T1, EnfR wild-type (TON_1525) (Thermococcus onnurineus NA1) (UniProt B6YTS4).
T1 sequence: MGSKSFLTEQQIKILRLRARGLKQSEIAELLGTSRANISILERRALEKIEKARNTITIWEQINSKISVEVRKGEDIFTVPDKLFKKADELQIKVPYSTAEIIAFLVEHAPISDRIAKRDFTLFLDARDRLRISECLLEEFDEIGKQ
In words: EMSA. The settings on record: EMSA: 10 mM Tris pH 7.4, 200 mM KCl, 2 mM DTT, 0.2 mM EDTA, 37 C 20 min, ITC: 10 mM Tris-HCl pH 7.4, 200 mM KCl, 1 mM TCEP, 25 C, footprint: 20 mM …. (In general: In EMSA bound probe runs differently from free probe, usually more slowly.)

The target in data set [2] is T1, EnfR wild-type (TON_1525) (Thermococcus onnurineus NA1). In words: DNase I footprinting. The settings on record: EMSA: 10 mM Tris pH 7.4, 200 mM KCl, 2 mM DTT, 0.2 mM EDTA, 37 C 20 min, ITC: 10 mM Tris-HCl pH 7.4, 200 mM KCl, 1 mM TCEP, 25 C, footprint: 20 mM ….

Turning to “AACAGGGTGTTACATACTTTTATTTTCAATTCTAAGCTTCAAAAAACTCTTTTAAAAGTGAACATCCAATTAGGTTTGGGAAATGGTAAACAAAATTGTAAAAGGGTGTTTTGAACCAAACGTGGGGTGATAGAAAGATGGCATTTAT (double strand) [P1582]”, in data set [1], the binding result is listed as “binds”.

In the case of “GAGAGTTTTACTGTCTCTAAATGAAAGGTTCTAATACGGTGGATCGAATAATTTCTTGCGTTTTTATCCGGATCGCCGAACACGATTCCATCTTAAAATCTTTTTGTTTACATTATACGAGGTGATCAACAATGCCAGCTTTTTCCGGTT (double strand) [150-bp codh promoter probe]”, the binding entry in data set [2] was “binds”.

(Values after paper PMC10570040.)
